These results are taken from US5558864A, “Humanized and chimeric anti-epidermal growth factor receptor monoclonal antibodies” (Merck Patent Gesellschaft Mit Beschrankter Haftung, dated 1996).

Residue numbers refer to the chain shown, from its start. “Also recorded” adds a separate entry of the source.

The subject of assay [1] is EGF-receptor positive membranes (A431). As to the kind of experiment: Competition of 125I-labelled EGF and antibodies for EGF-receptor, SPA (Example 12). Type of assay: binding, human. The conditions noted are these: purified antibodies, 125I-EGF, FIG. 11. The procedure: Different probes of purified murine, chimeric and reshaped MAbs 425 were tested for their potency to compete with EGF regarding their binding to EGFR. The test was performed by competing ^125 I-labelled EGF (Amersham Corp., GB) and various antibodies for binding to EGF-receptor positive membranes (A431). The test system is based on SPA technology (Amersham).

For assay [2], the system named is EGFR protein. As to the kind of experiment: Competition binding assay with biotinylated murine MAb 425 (cell supernatants). The conditions noted are these: unpurified COS cell supernatants; relative levels of binding, not accurate affinity. Further details: species or system human. The procedure:
Murine MAb 425 was biotinylated using a correspondingly purchasable kit. ELISA plates were coated with an optimal dilution of the EGFR protein. Dilutions of the COS cell supernatants, in a volume of 50 μl, were mixed with 50 μl of the biotinylated murine MAb 425 (estimated by ELISA to be 1.75 μg/ml). Each COS cell supernatant was tested in duplicate. Plates were incubated at room temperature, overnight. Bound biotinylated murine MAb 425 was detected by the addition of a purchasable streptavidin horseradish peroxidase complex. A control with no competitor present allowed a value of percentage of inhibition or blocking to be calculated for each COS cell supernatant as follows: […]

Assay [3] deals with EGFR protein. Put plainly: ELISA for antigen binding to EGFR. The conditions noted are these: transfected cell supernatants, detection with anti-human IgG; VH versions co-transfected with RVL a425, ranked: highest > followed by > then followed by > low > never detectable. On the procedure: Human IgG present in COS cell supernatants was detected by ELISA: In the ELISA assay for human IgG, 96-well plates were coated with goat anti-human IgG (whole molecule) and human IgG in the samples that bound to the plates was detected using alkaline phosphatase-conjugated goat anti-human IgG (gamma-chain specific). Purchasable purified human IgG was used as a standard. Binding to the antigen recognized by MAb 425 was determined in a second ELISA. Plates were coated with an EGFR protein preparation (obtainable, for example, according to Rodeck et al., 1980) and antibodies binding to EGFR were detected using either an anti-human IgG (gamma-chain specific) peroxidase conjugate (for chimeric and reshaped human antibodies) or an anti-mouse IgG (whole molecule) peroxidase conjugate (for the mouse MAb 425 antibody) (both conjugates supplied by Sigma). Purified murine MAb 425 was used as a standard.
(In general: An ELISA detects its analyte on a solid surface through an enzyme-linked reagent.)

The subject of assay [4] is EGFR solubilized from A431 membranes. As to the kind of experiment: Competitive binding of purified antibodies against biotin-labelled MAb 425 (Example 11). Set-up: species or system human. As to conditions: competition with biotin-labelled MAb 425, inhibition curves FIG. 10. On the procedure: Biotin-labelled MAb 425 was Used to compete with unlabelled MAb 425 or derivates for binding to EGFR. Biotin-labelling occurred according to standard methods. EGFR was solubilized from A431 membranes by standard methods. A431 cells were commercially purchased. Detection was done after incubation with POD-conjugated streptavidin and substrate.

Assay [5] relates to epidermoid and colorectal carcinoma-derived cell lines. As to conditions: in vitro; cited from earlier work.
The test system of assay [6] is human epidermal growth factor receptor (EGFR). The conditions noted are these: cited from earlier work.
Assay [7] concerns the target T1, EGFR protein preparation (epidermal growth factor receptor) (human, UniProt P00533). As to the kind of experiment: competition ELISA on EGFR-coated plates, competitor biotinylated murine MAb 425 (FIG. 7, Panel B).
Assay [8] has as its target T1, EGFR protein preparation (epidermal …). As to the kind of experiment: antigen-binding ELISA on EGFR protein, COS supernatants, with RVL a425 (FIG. 6).
For assay [9] the target is unchanged. Put plainly: antigen-binding ELISA on EGFR protein, COS supernatants (FIG. 6).
The target is the same in assay [10]. As to the kind of experiment: antigen-binding ELISA on EGFR protein, supernatant of co-transfected cells.
The target is the same in assay [11]. Put plainly: antigen-binding ELISA on EGFR protein, cell supernatants.
Assay [12] shares this target. As to the kind of experiment: antigen-binding ELISA on EGFR protein, cell supernatants (FIG. 8, Panel A).

On to “Chimeric 425 antibody: mouse 425 VL and VH regions with human kappa and gamma-1 constant regions”, for which the “potency to compete with EGF for binding to EGFR” value in assay [1] is “the same”. Moreover, the “competition with labelled mouse 425 antibody for binding to antigen (percent inhibition of binding, relative avidity)” value with EGFR protein [2] is “just slightly less than that obtained when unlabelled mouse 425 antibody is competed with labelled mouse 425 antibody”. Besides, the “binding to EGFR in antigen-binding ELISA” value with EGFR protein [3] was “binds well to EGFR protein”. In addition, in assay [4], the “binding potency (avidity) to EGFR” value is reported as “similar”. As for “MAb 425: murine monoclonal antibody raised against human A431 carcinoma cells, binds EGFR; hybridoma ATCC HB 9629 [reference compound]”, the “potency to compete with EGF for binding to EGFR” value in assay [1] is on record as “the same; also recorded: nearly identical”. For the same molecule, the tumor cell growth result in assay [5] is recorded as “suppress tumor cell growth”. The “binding to EGFR epitope” value in assay [6] is reported as “bind to a polypeptide epitope on the external domain of the human epidermal growth factor receptor (EGFR)”. For the same molecule, the “inhibition of EGF binding to EGFR” value in [6] (low and high affinity EGFR sites) was “inhibit the binding of epidermal growth factor (EGF) at both low and high affinity EGFR sites”. Moreover, the “binding potency (avidity) to EGFR” value in assay [4] is “similar”.

B1: reshaped human 425 antibody with RVL a425 and RVH i425 (antibody, V domains shown)
VH: QVQLVQSGAEVKKPGASVKVSCKASGYTFTSHWMHWVRQAPGQGLEWVGEFNPSNGRTNYNEKFKSKATMTVDTSTNTAYMELSSLRSEDTAVYYCASRDYDYDGRYFDYWGQGTLVTVSS
VL: DIQMTQSPSSLSASVGDRVTITCSASSSVTYMYWYQQKPGKAPKLLIYDTSNLASGVPSRFSGSGSGTDFTFTISSLQPEDIATYYCQQWSSHIFTFGQGTKVEIK
For B1, the binding result in [7] was “binds”.

B2: reshaped human 425 antibody with RVL a425 and RVH c425 (antibody, V domains shown)
VH: B1 VH with T30S
VL: B1 VL
On to B2, for which the binding result in assay [8] was “binds”.

B3: reshaped human 425 antibody with RVL a425 and RVH d425 (antibody, V domains shown)
VH: B1 VH with T30S, V48I, K67R, A68V, V72L
VL: B1 VL
As for B3, the binding result in assay [9] is recorded as “no binding”.

B4: reshaped human 425 antibody with RVL a425 and RVH b425 (antibody, V domains shown)
VH: B1 VH with T30S, K67R, A68V
VL: B1 VL
As for B4, the binding result in assay [8] is recorded as “binds”.

B5: antibody with chimeric 425 light chain and reshaped human 425 heavy chain version a (antibody, V domains shown)
VH: B1 VH with T30S, K67R, A68V, V72L
VL: QIVLTQSPAIMSASPGEKVTMTCSASSSVTYMYWYQQKPGSSPRLLIYDTSNLASGVPVRFSGSGSGTSYSLTISRMEAEDAATYYCQQWSSHIFTFGSGTKLEIK
With B5, the binding result in assay [10] is on record as “no binding”.

B6: reshaped human 425 antibody with RVL a425 and RVH h425 (antibody, V domains shown)
VH: B1 VH with K67R, A68V
VL: B1 VL
For the molecule B6, the binding result in assay [8] is listed as “binds”.

B7: reshaped human 425 antibody with RVL a425 and RVH a425 (antibody, V domains shown)
VH: B1 VH with T30S, K67R, A68V, V72L
VL: B1 VL
As to B7, the binding result in assay [10] is “no binding”.

B8: reshaped human 425 antibody with RVL b425 and RVH b425 (antibody, V domains shown)
VH: B1 VH with T30S, K67R, A68V
VL: B1 VL with F70Y
B8: in [11], the binding result is given as “binds”.

B9: reshaped human 425 antibody with RVL a425 and RVH f425 (antibody, V domains shown)
VH: B1 VH with T30S, V48I
VL: B1 VL
Take B9: the binding result in assay [8] was “binds”.

B10: antibody with reshaped human 425 light chain version a and chimeric 425 heavy chain (antibody, V domains shown)
VH: QVQLQQPGAELVKPGASVKLSCKASGYTFTSHWMHWVKQRAGQGLEWIGEFNPSNGRTNYNEKFKSKATLTVDKSSSTAYMQLSSLTSEDSAVYYCASRDYDYDGRYFDYWGQGTTLTVSS
VL: B1 VL
For B10, in assay [10], the binding result is reported as “binds”.

B11: reshaped human 425 antibody with RVL b425 and RVH c425 (antibody, V domains shown)
VH: B1 VH with T30S
VL: B1 VL with F70Y
For B11, the binding result in assay [12] was “binds”.
